Patent US20230183352A1 (published 2023)
Residue numbers refer to the chain shown, from its start. One block for each binder: values may come before it.

What was measured:
[1] = target: T1, Claudin 18.2 (CLDN18.2), expressed on CHOS-CLDN 18.2 / HEK293-CLDN 18.2 / HCC827-CLDN 18.2 cells (human, UniProt P56856-2 1-261); experiment: FACS, CHOS-CLDN18.2 cells
T1 construct: whole, on cells; The species is not repeated for the CHOS-CLDN 18.2 cells; also called claudin-18A2
Experimental: (§1) The initial concentration of the antibody was 20 μg/ml, it was diluted at 1:4, and incubated at 4° C. for 60 min.

[2] = target: T1, Claudin 18.2 (CLDN18.2), expressed on …; experiment: FACS, CHOS-CLDN18.2 cells, 5 µg/ml
Experimental: as §1

[3] = target: T1, Claudin 18.2 (CLDN18.2), expressed on …; experiment: FACS, CHOS-CLDN18.2 cells, 20 µg/ml
Experimental: as §1

[4] = target: T1, Claudin 18.2 (CLDN18.2), expressed on …; experiment: FACS, CHOS-CLDN18.2 cells, 10 µg/ml
Experimental: (§2) The initial concentration of the antibody was 20 μg/mkit was diluted at 1:4, and incubated at 4° C. for 60 min.

[5] = target: T1, Claudin 18.2 (CLDN18.2), expressed on …; experiment: FACS, CHOS-CLDN18.2 cells, 0.005 µg/ml
Experimental: as §1

[6] = target: T1, Claudin 18.2 (CLDN18.2), expressed on …; experiment: FACS, CHOS-CLDN18.2 cells, 0.020 µg/ml
Experimental: as §1

[7] = target: T1, Claudin 18.2 (CLDN18.2), expressed on …; experiment: FACS, CHOS-CLDN18.2 cells, 0.078 µg/ml
Experimental: as §1

[8] = target: T1, Claudin 18.2 (CLDN18.2), expressed on …; experiment: FACS, CHOS-CLDN18.2 cells, 0.313 µg/ml
Experimental: as §1

[9] = target: T1, Claudin 18.2 (CLDN18.2), expressed on …; experiment: FACS, CHOS-CLDN18.2 cells, 1.250 µg/ml
Experimental: as §1

[10] = target: T1, Claudin 18.2 (CLDN18.2), expressed on …; experiment: FACS, CHOS-CLDN18.2 cells, 0 µg/ml (background)
Experimental: as §1

[11] = target: T1, Claudin 18.2 (CLDN18.2), expressed on …; experiment: FACS, MFI on CHOS-CLDN18.2 over MFI on CHOS-CLDN18.1, 10 µg/ml
Experimental: as §2

B1: QP207208 (antibody, human IgG1, V domains shown)
VH: EVQLQQSGPELVKPGASVKMSCKASGYTFTSYIMHWVKQKPGQGLEWIGYINPYNDGTKYNEKFKGKATLTSDKSSSTVYMELSSLTSEDSAVYCCARLGFTTRNAMDYWGQGTSVTVSS
VL: DIVMTQSPSSLSVSAGEKVTMNCKSSQSLLNSGNQKNYLAWYQQKPGQPPKLLIYGASTRESGVPDRFTGSGSGTDFTLTISSVQAEDLAVYYCQNDHSYPFTFGSGTKLEIK
notes: Chimeric; also called 51A3; mouse-derived chimeric antibody QP207208
- EC50 [1]: 0.267 µg/mL
- max [1]: 187000
- FACS reading [2]: 187000
- FACS reading [3]: 117000
- MFI [4]: 627000
- FACS reading [5]: 5090
- FACS reading [6]: 11500
- FACS reading [7]: 24700
- FACS reading [8]: 90200
- FACS reading [9]: 149000
- FACS reading [10]: 732
- CLDN18.2/CLDN18.1 (MFI ratio) [11]: 476

B2: QP14641461 (antibody, human IgG1, kappa, V domains shown)
VH: EVQLVQSGAEVKKPGASVKVSCKASGYTFTSYIMHWVRQAPGQGLEWIGYINPYNDGTKYNEKFKGRVTLTRDKSTSTVYMELSSLRSEDTAVYYCARLGFTTRNAMDYWGQGTLVTVSS
VL: DIVMTQSPDSLAVSLGERATINCKSSQSLLNSGNQKNYLAWYQQKPGQPPKLLIYGASTRESGVPDRFTGSGSGTDFTLTISSLQAEDVAVYYCQNDHSYPFTFGQGTKLEIKR
notes: Humanized from QP207208
- EC50 [1]: 0.165 µg/mL
- max [1]: 166000
- FACS reading [2]: 166000
- FACS reading [3]: 99500
- MFI [4]: 721000
- FACS reading [5]: 5980
- FACS reading [6]: 19900
- FACS reading [7]: 46300
- FACS reading [8]: 97500
- FACS reading [9]: 160000
- FACS reading [10]: 732
- CLDN18.2/CLDN18.1 (MFI ratio) [11]: 709

B4: QP14641460 (antibody, human IgG1, kappa, V domains shown)
VH: B2 VH
VL: B2 VL with T69S
notes: Humanized from QP207208
- EC50 [1]: 0.0936 µg/mL
- max [1]: 191000
- FACS reading [2]: 191000
- FACS reading [3]: 114000
- MFI [4]: 604000
- FACS reading [5]: 6600
- FACS reading [6]: 16200
- FACS reading [7]: 44300
- FACS reading [8]: 151000
- FACS reading [9]: 146000
- FACS reading [10]: 732
- CLDN18.2/CLDN18.1 (MFI ratio) [11]: 579

Continued, values first:

- EC50 [1]: 0.306 µg/mL
- max [1]: 224000
- FACS reading [2]: 224000
- FACS reading [3]: 117000
- MFI [4]: 758000
- FACS reading [5]: 8450
- FACS reading [6]: 15800
- FACS reading [7]: 29300
- FACS reading [8]: 93600
- FACS reading [9]: 170000
- FACS reading [10]: 732
- CLDN18.2/CLDN18.1 (MFI ratio) [11]: 718
B3: QP14641462 (antibody, human IgG1, kappa, V domains shown)
VH: B2 VH
VL: B2 VL with L84V
notes: Humanized from QP207208

- EC50 [1]: 0.186 µg/mL
- max [1]: 189000
- FACS reading [2]: 189000
- FACS reading [3]: 174000
- MFI [4]: 595000
- FACS reading [5]: 7190
- FACS reading [6]: 19600
- FACS reading [7]: 50300
- FACS reading [8]: 134000
- FACS reading [9]: 219000
- FACS reading [10]: 732
- CLDN18.2/CLDN18.1 (MFI ratio) [11]: 596
B5: QP14651460 (antibody, human IgG1, kappa, V domains shown)
VH: B2 VH with R72S
VL: B2 VL with T69S
notes: Humanized from QP207208
